We go through 1 substance from paper PMC6071512.

The target in the assay is His6-RumM (ruminococcin-A lanthionine synthetase RumM) (Ruminococcus gnavus E1) (UniProt P83674).

Regarding “His6-GFP-TEV-preRumA* (GFP fusion of the precursor peptide preRumA with Gly-1 replaced by Arg), co-expressed with RumM (from UniProt P83674 24-47)”, the fraction of His6-GFP-TEV-preRumA* complexed with His6-RumM that TEV protease digested (the free construct was completely digested), SDS-PAGE stood at 50%.
